In the DeepSol protein solubility set:

Assay: soluble on expression in E. coli; label from the status in PepcDB or PDB records

**Q.** For “MSSLTDKTRNGALKRNLLRQMLKASVFKFGEFQLKSGQISPIYIDLRECFGHPGLLMLISEAISKQVEISEVQYAGVLGIPYAALPYASVAAGNYLKKPLLIVRKEAKSYGTKKLIEGLYQPNDRLILIEDVVTTGGSILDVVKVLHTENLVASDVFCILDREQGGRQKLQDAGVTLHSLLDMQTVLTFLYSTGAIGDEQWHGIVQALNLPYTSPTKLEINSELENLSSLPYVENVRTPLAERESLTESALIKKILGIMRRKKSNLCLAVDYTTVEQCLQMIELAGPFVLAIKLHADAITDFNEEFTRKLTTMANDMDFIIFEDRKFGDTGNTNLLQLTGAQKIANWADVVTVHAVQGSDSIAGVFRKLAKDPTYRLSGVLLIAQLSTKGSLTALEGYTETAVKIANENRDVISGFITQTRVSACSDLLNWTPGVNLDAKSDSAGQQWRGVDEAIEVQQNDIIIVGRGVTSSSEPVQQLKRYRQIAWDALTRSDDSI”, which “soluble on expression in E. coli” value is on record?
**A.** not soluble

**Q.** For “THRAFNPKTLYIDASTSALKYSQGSTVYFRLPLDDIVRVQIQKESFSSQSLMIYTVNDSYQVPNSDNFDSLQLKYLMKKLEKRLDDQRR”, which “soluble on expression in E. coli” value is on record?
**A.** not soluble

**Q.** For “MGSDKIHHHHHHMTSVEPTKAVLFLQGPPSILWTEFARAFEQAGVKTHHVNFTLGDFLFWRKRGAKNYRGSFSKWPAYLRRLIAEKGITDIVYYADRLPYHAKAAEIGEELGVRCHAVEWGYLRPDWLTFERDGMGRFSHFPNDPKAIRAIAAKVEEPDIAVKYPHTFGQEAFNEVIYNLLNFFGRPFYPLYNADKYYSALVDYLPWLLKAGVKPARLPEGFLEDGQPPFYLVALQLQSDYQIRANSPYRHLRDMMRQVIASFVKNAPAGSKLLFKQHPLDNGLERWHKVLRHIAREFKIEDRVVFIEEGDLHDILQKTAGVVIVNSTVGLHSLRAQKPTIVLGCAVFDVPGLTHQGRLDDFWKRPEPVDPELMRDLVKAMAATIQIKGDFFNKAGRQAAIGAMVQRVIEGTVNMPDAFIDPPPRLTSPKGILTVLGRPVELDWEEDAAVPDMTYARSGPIR”, which “soluble on expression in E. coli” value is on record?
**A.** not soluble

**Q.** For “MPKIILVSHSKEIASGTKSLLKQMAGDVDIIPIGGLPDGSIGTSFDIIQEVLTKLEDDALCFYDIGSSEMNVDMAIEMYDGNHRVLKVDAPIVEGSFIAAVKLSIGGSIDDALAEIKQSFLEHHHHHH”, which “soluble on expression in E. coli” value is on record?
**A.** soluble

**Q.** With “GPGSMSTQLISGGEDGSHSQLMDLVLTNCSRPQSRASDNKQSTDGVVRLTSYVDLPNRDTLLPPIAEPKGGVPETSETLFPRRLGFDMIGVSSVSEEMLRDLYEVFDVHQSGGVERGVLREMMRSGFSHFGAPCSDRDLDRFFENVTPFRVRRRRTPKEGEVDVVPFNEFCVAFLSWLRR” as the sequence, how does the “soluble on expression in E. coli” value read?
**A.** soluble

**Q.** Which “soluble on expression in E. coli” value does the source give for “MGSDKIHHHHHHMEKFKGALVVGALRLFALLPWRAVQGVGAGIGWLMWKLPNRSREVVRINLSKCFPELSETELEKLVGQSLMDIGRTLTESACAWIWPPEKSLRYIREVEGMEVLEEALASGDGLVGITSHLGNWEVLNHFYCSYAKPIIFYRPPKLKAVDELLKKQRVQLGNRVAPSTPEGILSVIKEVKKGGCVGIPADPEPARTAGLFVPYLGTTALISKFVPQLLSRGKARGVFFHAVRLPDGSGYKVILEAAPADMYDKDLEVSVAAMSRELAKYVRAYPSQYMWSMKRFKNRPDGEKKWY” here?
**A.** not soluble

**Q.** Which “soluble on expression in E. coli” value does the source give for “DIESGLYALIGLFATSKTIDLVQVGLNQSKTVFIISENQEAIRQAILFKIDRGITRLSAKGGYTEDDKQILLCVIAQSEFSRLKEVIKEIDPEAFVVVMSASEVMGEGFTS” here?
**A.** not soluble

**Q.** Which “soluble on expression in E. coli” value does the source give for “MYIQILGSAAGGGFPQWNCNCVNCAGFRDGSLRAQARTQSSIALSDDGVNWVLCNASPDIRAQLQGFAPMQPGRALRDTGISAIVLMDSQIDHTTGLLSLREGCPHQVWCTDMVHEDLSTGFPLFEMLKHWNGGLNWNRIELQGSFVIPACPNLRFTPFPLRSAAPPYSPHRFDPHPGDNIGLLVEDTRTGGKLFYAPGLGKVDEALAEKMRDADCLLVDGTMWDDDEMQRRGVGTRTGREMGHLAQNGPGGMLDVLEGFPEQRKVLIHINNTNPILDEDSPERAELVRRNVEVAFDGMSIELLEHHHHHH” here?
**A.** soluble

**Q.** For “MGSDKIHHHHHHMFDMFEKAVVFGLYSITPVHAGSGAELSVIDLPIQRERHTGFPVIWGQSLKGVLRSRFRQLELDEKIEVESQKWKWKEKTKEVLKEKADEFIKKVEERKRDPLLTEIVFGPATDGASEHAGAVSVGDAKILLFPVRSAKGVFAFVTSPIVIQRLKEDFELVSEIENDIELKQILSRFKVELSNNETIAGNALILNGENKVILEDIVLKVKSDSNVIENLVEVLKTLFGDNFFGKPIESIKERIAIVSDDVFKSFTRFSTEIVARVRIDAEKGTVARGGLWYEEFLPSDTLMYSLIAVGSPKKENLPKEVDNTQKIVNVLKVTFNNAFLQIGGDETVGKGFVKVRAGVLTGGHKGN”, which “soluble on expression in E. coli” value is on record?
**A.** not soluble

**Q.** With “MAYETFAFVYDEVMDESLYQKWLDFSNRHLPQGTQQILEMACGTGALAVDFAKSGYDVTALDLSEEMLMIASERAFEEEVPVQFVQGNMLDLSEVGQYQAITCFSDSLCYMANRQEVQQVFDEVYQALEEEGTFIFDVHSTYKIDSVFPEYSYHYQTEEFAFLWDSYAGEKEHSIEHFLTFFVKEQETDEHFVRYDELHQERTYSLDNYLRMLESAGFMNVKVYADFTDEAPTETSERWFFVCQRD” as the sequence, how does the “soluble on expression in E. coli” value read?
**A.** not soluble

**Q.** Which “soluble on expression in E. coli” value does the source give for “HKCDITLQEIIKDLNSLTEQKTLCTELTVTDIFAASKNTTEKETFCRAATVLRQFYSHHEKDTRCLGATAQQFHRHKQLIRDLKRLDRNLWGLAGLNSCPVKEANQSTLENFLERLKTIMREKYSKCSS” here?
**A.** soluble

**Q.** For “GPGSMELSFPDKYYEVAKYFDYYVGNLEESPLLSDAQRLMFYALRQQADHGQCTTAAPSFWNSRERHKHQAWKQLGRMSTFEAMVFFVQQFEQLLTQLENSTGQPASTSGATARAGAVDWPSRLREMKSKMAPSPGNRPHRSEALASDGAHATNDILAVRRGPSPA”, which “soluble on expression in E. coli” value is on record?
**A.** soluble

**Q.** Which “soluble on expression in E. coli” value does the source give for “MSRSSVTGKEFVIRYVFNDVSNMNENDMRISTVEEYFNVPWIFQIQRNNGNLGIYLRCRKLKGQEMWSMFTELELKLISVYSDTRDQKCKTDMCFGHDSGKFYSSYGWSEFISWNELETSFMDAGSITVEARVIINKSIGFYTPKLMNFDEKKKEYSDIVVLVDGQRFYLLKKFLAFHSTFFESLFLGGFYEAKLTEVPLYDIDVDDFQKFLEVLYGFPVINDNTVEGILLLADMYQTPLVSELCEDFLIQTTGKTYKKKLQMAIKFNLENLKQFCISMIKSPFDLRSMIPSDISSIDHSTLAALFTKSLTLMK” here?
**A.** not soluble

**Q.** With “MGSDKIHHHHHHVTPFAQTAAQTDHYDVIVIGAGPSGSVAASLLHQQGKRVLVLEKQHFPRFSIGESLLPCCMQVIAEANMLDAVNQAGYQFKNGAAFNANGRSTYFDFTDKFTPGPGTTFQVERGDFDKLLADTAASQGVEIRYGQRVDAVDLSHNPRLTISDEQGASYELSADYLLDASGFGRVLPRLLDLERPSNLPSRTAIFTHIQDNIDSVDMGDYHFDRNKILISVHPDNRDIWYWLIPFSNGRCSLGVVGEPHLLGQDADLEATNLEATLIRLVREEPRLKQLLSRAEIIRKPAKLAGYSANVSTLASDKFALLGNAGEFLDPVFSSGVTIAMQSASIAAKCVVKQLNGESVDWQTEYAQPLMRGVDTFRTYVQAWYDGRFQDVIFYQDPNPKIKQMICSILAGYAWDESNPFVAESERRLNMVVELCR” as the sequence, how does the “soluble on expression in E. coli” value read?
**A.** not soluble

**Q.** Which “soluble on expression in E. coli” value does the source give for “MAHHHHHHMFRGRIELIIGPMFAGKTTELMRRVKREIHARRSCFVIKYSKDTRYDEHNVASHDQLMLRAQAAVSQLTEVRDTWKRFDVLAIDEGQFFSDLVDFCNTAADAGKVVMVSALDGDYRRKPFGQICELVPYCEAVDKLTAVCMMCHEQPACFTRRTVNVEQQELIGGADMYIATCRECYSKQQLPSIEEMRTQRMAIKEVEKRYLGLSDKRATASPQTPEKPAGGWCTKAGVATLPTMVKEGAASSGASAGMKSGRGLCEMQAFTTETPKYQRVEPACTASAASSE” here?
**A.** soluble

**Q.** With “MAHHHHHHMSVVRVSITHSSSGIRVPEKRYELSQTIASIKSNIFTHFATPPEQMQLQLIDDRGVKVESSMADDKQLGYYQCRDDFVIHVVDLRPTQQIANFEDVSQVQKYEITEEAYSKREDNARAFRQLMMARQREEAEKAGNPLPKELDADSYKETAEKIHVDDRCQCQPGDRLGTVRFVGRVASLKPGYWIGVEFDEPVGKGDGSVKGTRVFECQPKYGGFLRPDQVTVGDFPPEEF” as the sequence, how does the “soluble on expression in E. coli” value read?
**A.** not soluble

**Q.** Which “soluble on expression in E. coli” value does the source give for “MAHHHHHHMQSSISQEKLQLMQKNFNLVDLNKDGKIAAEEFKTLLRLLGQTKTEKEMDEMVDKHFEDAPIGEEQQQDAAEAADKGGANEGTPSTAKQLGGQ” here?
**A.** soluble

**Q.** With “MNGSKENAMKIDLNSDMGEGFGPYRLCDDEAMMKIVSSANIACGFHGGDPDTMARMVRLAKANGVGIGAHPGLPDRAGFGRREIPFQPDELRQQMLYQLGALMAIAGAEGMKVGHFSFHAAMGNMVNRDPVLADLMMNAIATVDPRLVVFVTPESEIERAAKRAGLKTLALFLADRAYDAEGRLVARGLPGALVKDETSVRARVRRFLTHGQVEAIDGTIIAMPAHSILVHSDTPGSLELARIIRSEIEASGATLAPAAEHAALEHHHHHH” as the sequence, how does the “soluble on expression in E. coli” value read?
**A.** soluble

**Q.** For “MASKSRILQLKGTGLKKVPDEIEPLADVLRNLELSENKIREIPIFIGQFSQLKQLHLANNCLEFLPDELGSMKKLEILNLAGNKLKALPDTIVGCTDLKTIDLSSNVFTVFPVAVIGCLQLDILNLNGNQIESLPDDISNLKVIELSLNQNRLSSLNPSNLAKTTRLRTLRLDENCLEKSEFTRDLLESSTISVMSYDGNRFQLKDFQDLPGYDAYQERFTATKRKI”, which “soluble on expression in E. coli” value is on record?
**A.** not soluble

**Q.** With “GPGMSSLSNSLPLMEDVQGIRKAQKADGTATVMAIGTAHPPHIFPQDTYADVYFRATNSEHKVELKKKFDHICKKTMIGKRYFNYDEEFLKKYPNITSYDEPSLNDRQDICVPGVPALGTEAAVKAIEEWGRPKSEITHLVFCTSCGVDMPSADFQCAKLLGLHANVNKYCIYMQGCYAGGTVMRYAKDLAENNRGARVLVVCAELTIMGLRAPNETHLDNAIGISLFGDGAAALIIGSDPIIGVEKPMFEIVCTKQTVIPNTEDVIHLHLRETGMMFYLSKGSPMTISNNVEACLIDVFKSVGITPPEDWNSLFWIPHPGGRAILDQVEAKLKLRPEKFRAARTVLWDYGNMVSASVGYILDEMRRKSAAKGLETYGEGLEWGVLLGFGPGITVETILLHSLPLM” as the sequence, how does the “soluble on expression in E. coli” value read?
**A.** soluble

**Q.** For “MNNPKPCEWKSNELSRGYIADYKAFNFVDGEGVRCSLYVSGCPFHCEGCYNKAAQSFKYGKPYTKELEDDILKDIGHESVQGLTLLGGEPFLNTATCLSVVKRIRATYGKTKDIWSWTGYTWDEMMQETTDKLELLSLIDVLVDGRFEQKLFDPNLAFRGSSNQRIIDVQKSLAADEVVLYELLEHHHHHH”, which “soluble on expression in E. coli” value is on record?
**A.** soluble

**Q.** With “AHHHHHHGSIIIMDNGGQYVHRIWRTLRYLGVEAKIIPNTTPLDEIKAMKPKGIIFSGGPSLENTGNCEKILEHYEEFNVPILGICLGHQLIAKFFGGEVGRGEKAEYSLVEIEIIDENDIFKGLPRKVRVWESHMDEVKKLPPKFKLLARSDTCPVEAMKHEELPIYGVQFHPEVAHTEHGADILRNFAKICGEL” as the sequence, how does the “soluble on expression in E. coli” value read?
**A.** soluble

**Q.** For “MSLRHMQIETVNLPLARPMAAENGTRHAVTVIRVALEEKGFIGQGECTPAAHYGESADSVCRQLSAIREAIENGLTIEQLQQNLSPGAARNALDCALWRLNTALEKQTLWQRVGIHPPTSVVCAQTLALDSVEKMATAASNAVSHGALLLKIKLDRELILEKVAAIRAAAPNARLIIDARASWSGLDLHSLSTALLPYQVAMIEQPLPVGKDEDLQRFAHPIPICADESCRHSGDIVGLRRRYDMINIKLDKCGGLTEALAMVREAHFHGLRIMVGCTLGSSMAMEAALPVAADAEHVDLDGPIWLAADSSPYLTYNLGRIWLEGHHHHHH”, which “soluble on expression in E. coli” value is on record?
**A.** soluble

**Q.** With “LLDVMMDIFRRRELDLPCDGGAPQAPRPLKDHPRTPTDRGDADPRDAASHGLGTDRFPDLPTPEQDPRHPYRPGSQTLRPLRPLRPLRPLRPHGR” as the sequence, how does the “soluble on expression in E. coli” value read?
**A.** not soluble
